This note sets out measurements from the Human Domainome abundance scans (Beltran et al. 2025).

The labels stand for the following.
B1: Ubiquitin-protein ligase residues 30 to 86; numbered along this chain, Q05086 (parent)
chain: KHLIERYYHQLTEGCGNEACTNEFCASCPTFLRMDNNAAAIKALELYKINAKLCDPH
B2: Chromodomain-helicase-DNA-binding protein 3, residues 374 to 426; numbered along this chain, Q12873 (parent)
chain: YETDHQDYCEVCQQGGEIILCDTCPRAYHLVCLDPELDRAPEGKWSCPHCEKE

± gives the uncertainty stated by the source.

The variants in the first series derive from B1. Put plainly: abundance fitness (aPCA) (normalised: wild type 0, dead -1); higher = more abundant; growth selection in yeast, the domain comes from the species named. The note with it: Homo sapiens.
As for KHLIERYYHQLTEGCGNEACTNEFCASCPTFARMDNNAAAIKALELYKINAKLCDPH [L32A], the abundance fitness stood at 0.006 ± 0.081.

Consider KHLIERYYHQLTEGCGNEACTNEFCASCPTFLRMDNNAAAIKAAELYKINAKLCDPH [L44A], for which the abundance fitness was determined as 0.057 ± 0.062. For KHLIERYYTQLTEGCGNEACTNEFCASCPTFLRMDNNAAAIKALELYKINAKLCDPH [H9T], the abundance fitness was determined as 0.032 ± 0.063. The same measure, in the same setting: the figure for KHLIERYYHQLTEGCGNEACTNEFCAMCPTFLRMDNNAAAIKALELYKINAKLCDPH [S27M] is -0.112 ± 0.072. On the same count and under the same terms, next, KHLIERYYHQLTEGCGNEACTNEFCAECPTFLRMDNNAAAIKALELYKINAKLCDPH [S27E]: -0.374 ± 0.069. The same measure, in the same setting: the figure for KHLIERYYHQSTEGCGNEACTNEFCASCPTFLRMDNNAAAIKALELYKINAKLCDPH [L11S] is -0.425 ± 0.057; for KHLIERYYHQTTEGCGNEACTNEFCASCPTFLRMDNNAAAIKALELYKINAKLCDPH [L11T] it is -0.201 ± 0.071. Turning to KHEIERYYHQLTEGCGNEACTNEFCASCPTFLRMDNNAAAIKALELYKINAKLCDPH [L3E], the abundance fitness was -0.206 ± 0.081. On to KHSIERYYHQLTEGCGNEACTNEFCASCPTFLRMDNNAAAIKALELYKINAKLCDPH [L3S], for which the abundance fitness is -0.004 ± 0.057. In the case of KHLIERYYHQLTEGCGNEACTNEFCASCPTFLRMCNNAAAIKALELYKINAKLCDPH [D35C], the abundance fitness was -0.133 ± 0.087. Same read-out and setting: next, KHLIERYYHQLTEGCGNEACTNEFCASCPTFLRMMNNAAAIKALELYKINAKLCDPH [D35M]: -0.058 ± 0.1; KHLIERYYHQLTEGCGNEACTNEFCASCPTFLRMDNNATAIKALELYKINAKLCDPH [A39T]: -0.065 ± 0.1. On to KHLIERYYHQLTEGCGNEACTNEFCASCPTFLRMDNNAEAIKALELYKINAKLCDPH [A39E], for which the abundance fitness was -0.393 ± 0.13. Still for that read-out and setting: next, KHLIERYYHQLTEGCGNEACTNEFCASCPTFLRMDNNAAAIKALELYKITAKLCDPH [N50T]: -0.006 ± 0.11. Same read-out and setting: the figure for KHLIERYYHQLTEGCGNEACTNEFCASCPTFLRMDNNAAAIKALELYKIPAKLCDPH [N50P] is -0.041 ± 0.088. With KHLIERYYHQLTEGCGNEACTNEFCASCPTFLRMDNNAAAIKALELYKIQAKLCDPH [N50Q], the abundance fitness was -0.11 ± 0.097. Still for that read-out and setting: the figure for KHLIERYYHQLTEGCGNEACTNEFCASCPQFLRMDNNAAAIKALELYKINAKLCDPH [T30Q] is -0.048 ± 0.11; for KHLIERYYHQLTEGCGNEACTNEFCASCPTFLRMDNNAAAMKALELYKINAKLCDPH [I41M] it is -0.053 ± 0.076; for KHLIERYYHQLTEGCGNVACTNEFCASCPTFLRMDNNAAAIKALELYKINAKLCDPH [E18V] it is -0.023 ± 0.058. As for KHLIERYYHQLTEGCGNEACTNEFCASCPTFLRMDNTAAAIKALELYKINAKLCDPH [N37T], the abundance fitness was -0.015 ± 0.09. On the same count and under the same terms, next, KHLIERYYHQLTEGCGNEACTNEFCASCPTFLRMDNPAAAIKALELYKINAKLCDPH [N37P]: -0.107 ± 0.096; KHLIERYYHQLTEGCGNEACTNEFLASCPTFLRMDNNAAAIKALELYKINAKLCDPH [C25L]: -1.08 ± 0.13.

In the case of KHLIERYYHQLTEGCGNEACTNEFIASCPTFLRMDNNAAAIKALELYKINAKLCDPH [C25I], the abundance fitness was -0.613 ± 0.28. Still for that read-out and setting: the figure for KHLIERYYHQLTEGCGNEACTNEFCVSCPTFLRMDNNAAAIKALELYKINAKLCDPH [A26V] is -0.156 ± 0.052.

For the variant KHLIERYYHQLTEACGNEACTNEFCASCPTFLRMDNNAAAIKALELYKINAKLCDPH [G14A], the abundance fitness is -0.866 ± 0.072. The same measure, in the same setting: next, KHLIERYYHQLTEGCGNEACTNEFCASCPTFLRMDNNAAAIKALELYKINAKLCDPP [H57P]: -0.006 ± 0.1. Same read-out and setting: next, KELIERYYHQLTEGCGNEACTNEFCASCPTFLRMDNNAAAIKALELYKINAKLCDPH [H2E]: -0.055 ± 0.086. On to KHLIEDYYHQLTEGCGNEACTNEFCASCPTFLRMDNNAAAIKALELYKINAKLCDPH [R6D], for which the abundance fitness is -0.028 ± 0.058.

With KHLIERYYHQLTEGCGNEACTNEFCASCHTFLRMDNNAAAIKALELYKINAKLCDPH [P29H], the abundance fitness was -0.036 ± 0.29. KHLIERYYHQLTEGCGNEACTNEFCASCPTFLRMDNNAAAIKALELYKINAKLCMPH [D55M]: the abundance fitness was found to be 0.006 ± 0.088.

Variants of B2 are the subject of another series. Described as above. The note with it: Homo sapiens.
As to A40S, the abundance fitness is -0.221 ± 0.1. Still for that read-out and setting: next, A40P: -0.138 ± 0.15; A40E: 0.13 ± 0.12.

As for A40W, the abundance fitness is -0.346 ± 0.17.

As to A40K, the abundance fitness was -0.188 ± 0.19. The same measure, in the same setting: the figure for A40D is 0.026 ± 0.19; for A40R it is -0.129 ± 0.11; for A40L it is -0.107 ± 0.1. Consider A40Y, for which the abundance fitness is -0.38 ± 0.17.

For the variant A40Q, the abundance fitness worked out at 0.126 ± 0.14.

Consider A40T, for which the abundance fitness is -0.162 ± 0.17. Take A40M: the abundance fitness is -0.004 ± 0.13.

With A40H, the abundance fitness was -0.412 ± 0.22. On the same count and under the same terms, next, A40V: -0.081 ± 0.1.

On to A40C, for which the abundance fitness was -0.33 ± 0.13.

As for A40F, the abundance fitness is -0.44 ± 0.16. Still for that read-out and setting: next, A40N: -0.169 ± 0.26; A40G: -0.398 ± 0.1. Still for that read-out and setting: next, S46Q: 0.127 ± 0.18; S46I: 0.12 ± 0.16; S46E: -0.122 ± 0.12. S46F: the abundance fitness was -0.104 ± 0.14. Same read-out and setting: the figure for S46C is -0.308 ± 0.14; for S46L it is -0.033 ± 0.1; for S46P it is -0.327 ± 0.19. Still for that read-out and setting: next, S46V: -0.085 ± 0.1. Same read-out and setting: next, S46A: -0.064 ± 0.11; S46G: -0.03 ± 0.087; S46Y: 0.08 ± 0.15. Consider S46M, for which the abundance fitness is -0.186 ± 0.18. The same measure, in the same setting: the figure for S46W is -0.043 ± 0.17; for S46T it is -0.073 ± 0.14; for S46H it is -0.526 ± 0.32. On the same count and under the same terms, the figure for S46K is -0.084 ± 0.17; for S46R it is -0.037 ± 0.097; for S46D it is -0.135 ± 0.14. On the same count and under the same terms, the figure for K52W is -0.487 ± 0.17.

For the variant K52P, the abundance fitness was determined as 0.104 ± 0.18. As for K52G, the abundance fitness is -0.137 ± 0.1. Still for that read-out and setting: next, K52L: -0.308 ± 0.12; K52S: 0.049 ± 0.12; K52M: -0.156 ± 0.23. On to K52R, for which the abundance fitness amounted to 0.013 ± 0.11. As to K52A, the abundance fitness was -0.264 ± 0.14. On the same count and under the same terms, next, K52D: -0.413 ± 0.24; K52E: -0.308 ± 0.22; K52V: -0.357 ± 0.14. The same measure, in the same setting: next, K52H: -0.38 ± 0.28; K52T: 0.01 ± 0.2. Still for that read-out and setting: the figure for K52N is -0.024 ± 0.18; for E51Y it is -0.554 ± 0.37. With E51M, the abundance fitness was -0.396 ± 0.16. On the same count and under the same terms, the figure for E51I is -0.438 ± 0.26; for E51T it is -0.156 ± 0.14; for E51F it is -0.205 ± 0.23.

As for E51S, the abundance fitness was -0.158 ± 0.14. Still for that read-out and setting: next, E51C: -0.137 ± 0.17.

Regarding E51R, the abundance fitness is -0.215 ± 0.12. The same measure, in the same setting: the figure for E51Q is -0.533 ± 0.2. Same read-out and setting: the figure for E51L is -0.039 ± 0.1.

Turning to E51D, the abundance fitness was -0.37 ± 0.21. The same measure, in the same setting: the figure for E51P is -0.194 ± 0.15; for E51A it is -0.215 ± 0.095; for E51W it is -0.501 ± 0.18. Same read-out and setting: next, G43S: -0.043 ± 0.096.

With G43Y, the abundance fitness was -0.277 ± 0.17.

Take G43K: the abundance fitness stood at 0.119 ± 0.19. Still for that read-out and setting: next, G43N: 0.204 ± 0.14; G43E: 0.22 ± 0.15. For the variant G43C, the abundance fitness is -0.369 ± 0.13.

Turning to G43V, the abundance fitness turned out to be 0.054 ± 0.1. The same measure, in the same setting: the figure for G43H is -0.12 ± 0.16; for G43T it is -0.128 ± 0.18.

With G43R, the abundance fitness was -0.142 ± 0.088. The same measure, in the same setting: next, G43Q: -0.001 ± 0.24; G43A: -0.314 ± 0.15. The same measure, in the same setting: next, G43P: 0.057 ± 0.17; G43M: -0.039 ± 0.21.

G43D: the abundance fitness is -0.031 ± 0.16. The same measure, in the same setting: the figure for G43I is -0.368 ± 0.21; for G43F it is -0.257 ± 0.19. Still for that read-out and setting: the figure for G43L is -0.343 ± 0.12; for H49M it is -0.797 ± 0.45.

Turning to H49W, the abundance fitness is -0.234 ± 0.14. The same measure, in the same setting: next, H49I: 0.221 ± 0.39; H49T: -0.011 ± 0.23. Still for that read-out and setting: next, H49R: -0.143 ± 0.1; H49G: -0.033 ± 0.093; H49E: -0.062 ± 0.17.

On to H49N, for which the abundance fitness was 0.217 ± 0.29.

In the case of H49V, the abundance fitness was determined as 0.126 ± 0.12. The same measure, in the same setting: the figure for H49K is -0.127 ± 0.2.

For H49L, the abundance fitness was -0.128 ± 0.11. Still for that read-out and setting: the figure for H49Q is -0.034 ± 0.27; for H49D it is -0.185 ± 0.15; for H49C it is -0.456 ± 0.22. Same read-out and setting: the figure for H49Y is -0.32 ± 0.23; for H49A it is -0.183 ± 0.16.
